Laboratory results taken from PMC9482650, “Quantitative fragmentomics allow affinity mapping of interactomes” (Nature Communications, 2022).
One block for each binder: values may come before it.

What was measured:
Experiment in all cases: holdup assay
Design in all cases: key: below the threshold = too weak to quantify, mostly under pKd 3.1 to 4
MAGI3_2, Q5TCQ9 = molecular target: MAGI3_2, Q5TCQ9
GRIP1_5, Q9Y3R0 = molecular target: T1, GRIP1_5, Q9Y3R0
T1 sequence (Q9Y3R0 568-668, limits assumed, looked up): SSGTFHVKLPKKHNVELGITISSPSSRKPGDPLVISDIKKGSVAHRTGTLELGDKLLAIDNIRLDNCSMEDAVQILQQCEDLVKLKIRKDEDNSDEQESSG

SNTG2, Q9NY99 = molecular target: T2, SNTG2, Q9NY99
T2 sequence (Q9NY99 68-166, limits assumed, looked up): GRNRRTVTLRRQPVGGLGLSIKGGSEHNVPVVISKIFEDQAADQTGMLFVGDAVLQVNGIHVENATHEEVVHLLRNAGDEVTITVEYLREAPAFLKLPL

SNX27, Q96L92 = molecular target: SNX27, Q96L92
MAGI2_3, Q86UL8 = molecular target: MAGI2_3, Q86UL8
MAGI2_5, Q86UL8 = molecular target: MAGI2_5, Q86UL8
MPDZ_12, O75970 = molecular target: T3, MPDZ_12, O75970
T3 sequence (O75970 1857-1958, limits assumed, looked up): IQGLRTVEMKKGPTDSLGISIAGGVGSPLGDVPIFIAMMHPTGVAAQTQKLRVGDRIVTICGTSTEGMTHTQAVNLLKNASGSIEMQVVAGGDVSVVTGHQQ

SNTG1, Q9NSN8 = molecular target: T4, SNTG1, Q9NSN8
T4 sequence (Q9NSN8 52-150, limits assumed, looked up): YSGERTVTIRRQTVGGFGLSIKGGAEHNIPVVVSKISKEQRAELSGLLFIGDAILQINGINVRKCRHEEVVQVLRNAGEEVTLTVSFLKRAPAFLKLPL

LDB3, O75112 = molecular target: LDB3, O75112
SYNJ2BP, P57105 = molecular target: T5, SYNJ2BP, P57105
T5 sequence (P57105 8-110, limits assumed, looked up): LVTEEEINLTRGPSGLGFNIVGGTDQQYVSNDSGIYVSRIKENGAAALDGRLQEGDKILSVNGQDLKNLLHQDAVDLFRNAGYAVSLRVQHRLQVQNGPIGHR

DLG4_3, P78352 = molecular target: DLG4_3, P78352
DLG5_1, Q8TDM6 = molecular target: DLG5_1, Q8TDM6
PARD3_3, Q8TEW0 = molecular target: PARD3_3, Q8TEW0
PDZRN3_1, Q9UPQ7 = molecular target: T6, PDZRN3_1, Q9UPQ7
T6 sequence (Q9UPQ7 244-349, limits assumed, looked up): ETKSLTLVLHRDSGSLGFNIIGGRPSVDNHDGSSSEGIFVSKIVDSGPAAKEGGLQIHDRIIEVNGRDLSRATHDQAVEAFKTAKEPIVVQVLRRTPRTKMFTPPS

TX1BP3, O14907 = molecular target: T7, TX1BP3, O14907
T7 sequence (O14907 10-122, limits assumed, looked up): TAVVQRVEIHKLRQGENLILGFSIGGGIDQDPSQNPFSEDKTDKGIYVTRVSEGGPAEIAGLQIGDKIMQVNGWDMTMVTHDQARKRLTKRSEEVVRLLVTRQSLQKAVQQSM

NOS1, P29475 = molecular target: NOS1, P29475
LNX2_2, Q8N448 = molecular target: T8, LNX2_2, Q8N448
T8 sequence (Q8N448 334-432, limits assumed, looked up): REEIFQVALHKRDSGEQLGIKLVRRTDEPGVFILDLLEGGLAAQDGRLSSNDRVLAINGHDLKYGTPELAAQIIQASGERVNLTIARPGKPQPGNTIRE

MAGI2_2, Q86UL8 = molecular target: MAGI2_2, Q86UL8
SCRIB_2, Q14160 = molecular target: SCRIB_2, Q14160
IL16_1, Q14005 = molecular target: IL16_1, Q14005
DLG4_2, P78352 = molecular target: DLG4_2, P78352
GRID2IP_2, A4D2P6 = molecular target: GRID2IP_2, A4D2P6
FRMPD2_2, Q68DX3 = molecular target: FRMPD2_2, Q68DX3
FRMPD2_1, Q68DX3 = molecular target: FRMPD2_1, Q68DX3
TJP1_2, Q07157 = molecular target: TJP1_2, Q07157
NHERF3_4, Q5T2W1 = molecular target: T9, NHERF3_4, Q5T2W1
T9 sequence (Q5T2W1 373-468, limits assumed, looked up): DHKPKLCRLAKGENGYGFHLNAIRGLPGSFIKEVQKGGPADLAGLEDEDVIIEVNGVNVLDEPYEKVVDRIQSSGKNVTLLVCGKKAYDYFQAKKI

TIAM2, Q8IVF5 = molecular target: T10, TIAM2, Q8IVF5
T10 sequence (Q8IVF5 885-986, limits assumed, looked up): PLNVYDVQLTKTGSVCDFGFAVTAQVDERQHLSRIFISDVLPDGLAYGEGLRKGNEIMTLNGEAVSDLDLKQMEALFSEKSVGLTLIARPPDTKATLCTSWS

GRID2IP_1, A4D2P6 = molecular target: GRID2IP_1, A4D2P6
[1] = plain residues with an end cap or a label only (N-terminal biotin on a linker: ahx)
[2] = plain residues with an end cap or a label only (N-terminal biotin on a linker: ttds)

Sequence of MAGI3_2, Q5TCQ9 (Q5TCQ9 398-503): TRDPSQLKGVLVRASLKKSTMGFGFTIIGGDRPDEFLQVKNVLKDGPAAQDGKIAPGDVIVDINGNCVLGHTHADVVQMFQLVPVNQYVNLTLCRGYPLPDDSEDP
Sequence of SCRIB_2, Q14160 (Q14160 857-960): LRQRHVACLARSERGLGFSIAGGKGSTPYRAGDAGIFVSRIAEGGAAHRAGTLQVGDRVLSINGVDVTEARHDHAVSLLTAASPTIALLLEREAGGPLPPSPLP
Sequence of NOS1, P29475 (P29475 9-101): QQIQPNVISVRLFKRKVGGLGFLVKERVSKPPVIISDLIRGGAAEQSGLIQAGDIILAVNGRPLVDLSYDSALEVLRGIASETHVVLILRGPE
Sequence of MAGI2_3, Q86UL8 (Q86UL8 600-682): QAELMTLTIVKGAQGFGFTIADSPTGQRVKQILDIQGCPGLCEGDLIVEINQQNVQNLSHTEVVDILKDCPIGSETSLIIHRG
Sequence of PARD3_3, Q8TEW0 (Q8TEW0 582-685): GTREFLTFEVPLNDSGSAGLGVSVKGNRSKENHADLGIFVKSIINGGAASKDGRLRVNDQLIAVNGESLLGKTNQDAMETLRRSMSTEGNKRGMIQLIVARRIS
Sequence of IL16_1, Q14005 (Q14005 210-306): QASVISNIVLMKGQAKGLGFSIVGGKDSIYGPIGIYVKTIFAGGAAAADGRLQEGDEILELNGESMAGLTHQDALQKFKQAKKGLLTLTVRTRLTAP
Sequence of TJP1_2, Q07157 (Q07157 181-274): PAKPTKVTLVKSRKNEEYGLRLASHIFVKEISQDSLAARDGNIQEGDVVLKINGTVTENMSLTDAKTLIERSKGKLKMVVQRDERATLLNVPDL
Sequence of LDB3, O75112 (O75112 1-94): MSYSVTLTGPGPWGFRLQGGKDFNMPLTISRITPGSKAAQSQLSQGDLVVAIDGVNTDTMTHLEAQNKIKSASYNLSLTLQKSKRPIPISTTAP
Sequence of DLG5_1, Q8TDM6 (Q8TDM6 617-713): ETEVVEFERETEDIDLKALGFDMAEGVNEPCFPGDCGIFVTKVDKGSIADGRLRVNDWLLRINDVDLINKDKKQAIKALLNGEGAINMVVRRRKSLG
Sequence of GRID2IP_2, A4D2P6 (A4D2P6 272-370): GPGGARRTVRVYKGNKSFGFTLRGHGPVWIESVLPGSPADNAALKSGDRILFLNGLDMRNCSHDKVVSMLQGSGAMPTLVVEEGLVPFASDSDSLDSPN
Sequence of DLG4_3, P78352 (P78352 306-403): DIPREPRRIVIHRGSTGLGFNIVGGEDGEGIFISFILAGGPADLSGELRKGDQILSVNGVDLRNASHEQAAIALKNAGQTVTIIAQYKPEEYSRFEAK
Sequence of MAGI2_2, Q86UL8 (Q86UL8 410-522): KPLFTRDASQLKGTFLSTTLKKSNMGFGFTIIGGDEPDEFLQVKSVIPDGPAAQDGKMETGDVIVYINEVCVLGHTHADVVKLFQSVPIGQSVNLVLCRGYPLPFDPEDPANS
Sequence of FRMPD2_1, Q68DX3 (Q68DX3 770-861): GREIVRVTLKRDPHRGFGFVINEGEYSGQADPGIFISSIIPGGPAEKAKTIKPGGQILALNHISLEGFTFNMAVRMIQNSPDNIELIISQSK
Sequence of DLG4_2, P78352 (P78352 155-259): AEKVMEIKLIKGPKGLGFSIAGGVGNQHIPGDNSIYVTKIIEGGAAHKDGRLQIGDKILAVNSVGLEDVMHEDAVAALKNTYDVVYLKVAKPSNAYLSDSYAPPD
Sequence of MAGI2_5, Q86UL8 (Q86UL8 915-1017): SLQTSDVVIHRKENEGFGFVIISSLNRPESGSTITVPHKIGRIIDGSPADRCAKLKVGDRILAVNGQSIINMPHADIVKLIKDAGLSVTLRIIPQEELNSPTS
Sequence of FRMPD2_2, Q68DX3 (Q68DX3 944-1038): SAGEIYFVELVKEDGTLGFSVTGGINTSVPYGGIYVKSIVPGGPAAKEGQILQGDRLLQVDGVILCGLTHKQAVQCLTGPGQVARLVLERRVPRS
Sequence of GRID2IP_1, A4D2P6 (A4D2P6 1-87): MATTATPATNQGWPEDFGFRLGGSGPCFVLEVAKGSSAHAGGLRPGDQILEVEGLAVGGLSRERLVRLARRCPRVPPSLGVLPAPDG

- pKd (MAGI3_2, Q5TCQ9; [1]): below the threshold
- pKd (GRIP1_5, Q9Y3R0; [1]): below the threshold
- pKd (SNTG2, Q9NY99; [1]): 4.32
- pKd (SNX27, Q96L92; [1]): 3.64
- pKd (MAGI2_3, Q86UL8; [1]): below the threshold
- pKd (MAGI2_5, Q86UL8; [1]): below the threshold
- pKd (MPDZ_12, O75970; [1]): below the threshold
- pKd (SNTG1, Q9NSN8; [1]): 4.33
- pKd (LDB3, O75112; [1]): 3.97
- pKd (SYNJ2BP, P57105; [1]): below the threshold
- pKd (DLG4_3, P78352; [1]): below the threshold
- pKd (DLG5_1, Q8TDM6; [1]): below the threshold
- pKd (PARD3_3, Q8TEW0; [1]): 3.66
- pKd (PDZRN3_1, Q9UPQ7; [1]): 3.69
- pKd (TX1BP3, O14907; [1]): 4.39
- pKd (NOS1, P29475; [1]): below the threshold
- pKd (LNX2_2, Q8N448; [1]): below the threshold
- pKd (MAGI2_2, Q86UL8; [1]): below the threshold
- pKd (SCRIB_2, Q14160; [1]): 3.78
- pKd (IL16_1, Q14005; [1]): below the threshold
- pKd (DLG4_2, P78352; [1]): 3.68
- pKd (GRID2IP_2, A4D2P6; [1]): 4.47
- pKd (FRMPD2_2, Q68DX3; [1]): 3.54
- pKd (FRMPD2_1, Q68DX3; [1]): below the threshold
- pKd (TJP1_2, Q07157; [1]): below the threshold
- pKd (NHERF3_4, Q5T2W1; [1]): below the threshold
- pKd (TIAM2, Q8IVF5; [1]): below the threshold
- pKd (GRID2IP_1, A4D2P6; [1]): below the threshold
B1: TJP3, O95049 (peptide)
chain: GYDWGPATDL

- pKd (MAGI3_2, Q5TCQ9; [2]): 4.33
- pKd (GRIP1_5, Q9Y3R0; [2]): below the threshold
- pKd (SNTG2, Q9NY99; [2]): 4.55
- pKd (SNX27, Q96L92; [2]): 5.15
- pKd (MAGI2_3, Q86UL8; [2]): below the threshold
- pKd (MAGI2_5, Q86UL8; [2]): below the threshold
- pKd (MPDZ_12, O75970; [2]): below the threshold
- pKd (SNTG1, Q9NSN8; [2]): 4.71
- pKd (LDB3, O75112; [2]): below the threshold
- pKd (SYNJ2BP, P57105; [2]): 4.78
- pKd (DLG4_3, P78352; [2]): 3.94
- pKd (DLG5_1, Q8TDM6; [2]): below the threshold
- pKd (PARD3_3, Q8TEW0; [2]): below the threshold
- pKd (PDZRN3_1, Q9UPQ7; [2]): 4.42
- pKd (TX1BP3, O14907; [2]): 3.84
- pKd (NOS1, P29475; [2]): 3.71
- pKd (LNX2_2, Q8N448; [2]): below the threshold
- pKd (MAGI2_2, Q86UL8; [2]): below the threshold
- pKd (SCRIB_2, Q14160; [2]): 4.48
- pKd (IL16_1, Q14005; [2]): 3.6
- pKd (DLG4_2, P78352; [2]): 4.2
- pKd (GRID2IP_2, A4D2P6; [2]): below the threshold
- pKd (FRMPD2_2, Q68DX3; [2]): 4.5
- pKd (FRMPD2_1, Q68DX3; [2]): below the threshold
- pKd (TJP1_2, Q07157; [2]): 3.83
- pKd (NHERF3_4, Q5T2W1; [2]): below the threshold
- pKd (TIAM2, Q8IVF5; [2]): below the threshold
- pKd (GRID2IP_1, A4D2P6; [2]): below the threshold
B2: SLC16A3, O15427 (peptide)
chain: EVVHTPETSV
